Measurements as given in US20200024330A1.

B1: PGT-128 (antibody, V domains shown)
VH: QPQLQESGPTLVEASETLSLTCAVSGDSTAACNSFWGWVRQPPGKGLEWVGSLSHCASYWNRGWTYHNPSLKSRLTLALDTPKNLVFLKLNSVTAADTATYYCARFGGEVLRYTDWPKPAWVDLWGRGTLVTVSS
VL: QSALTQPPSASGSPGQSITISCTGTSNNFVSWYQQHAGKAPKLVIYDVNKRPSGVPDRFSGSKSGNTASLTVSGLQTDDEAVYYCGSLVGNWDVIFGGGTKLTVL
B2: PGT-131 (antibody, V domains shown)
VH: QVQLQESGPGLVKPSETLSLTCTVSGDSINTGHHYWGWVRQVPGKGPEWIAHIHYNTAVLHNPALKSRVTISIFTLKNLITLSLSNVTAADTAVYFCVRSGGDILYYIEWQKPHWFYPWGPGILVTVSS
VL: QSALTQPPSASGSLGQSLTISCSGTGSDIGSWNFVSWYQQFPGRAPNLIIFEVNRRRSGVPDRFSGSKSGNTASLTVSGLRSEDEAEYFCSSLSGRWDIVFGGGTKVTVL
B3: PGT-130 (antibody, V domains shown)
VH: QVQLQESGPGLVKPAETLSLTCSVSGESINTGHYYWGWVRQVPGKGLEWIGHIHYTTAVLHNPSLKSRLTIKIYTLRNQITLRLSNVTAADTAVYHCVRSGGDILYYYEWQKPHWFSPWGPGIHVTVSS
VL: QSALTQPPSASGSLGQSVTISCNGTSSDIGGWNFVSWYQQFPGRAPRLIIFEVNKRPSGVPGRFSGSKSGNSASLTVSGLQSDDEGQYFCSSLFGRWDVVFGGGTKLTVL

Experiments:
[1] = biological target: WT JR-FL gp120 (HIV-1 (isolate JR-FL)); assay: ELISA on coated gp120; EC50 by nonlinear regression
[2] = biological target: JR-FL gp120 ΔV1/ΔV2 (HIV-1 (isolate JR-FL)); assay: as above
[3] = biological target: HIV-1 JR-CSF Env S306A (HIV-1 JR-CSF) (UniProt P20871); assay: cell-based or functional assay
[4] = biological target: HIV-1 JR-CSF Env T413A (HIV-1 (isolate JR-CSF)) (UniProt P20871); assay: cell-based or functional assay
[5] = biological target: Env of the clade C HIV-1 pseudoviruses of the cross-clade 162-pseudovirus panel (n = 27); assay: cell-based or functional assay
[6] = biological target: HIV-1 Env of isolate MGRM-C-026 (HIV-1); assay: cell-based or functional assay
[7] = biological target: HIV-1 JR-CSF Env P299A (HIV-1 JR-CSF) (UniProt P20871); assay: cell-based or functional assay
[8] = biological target: HIV-1 JR-CSF Env I420A (HIV-1 (isolate JR-CSF)) (UniProt P20871); assay: cell-based or functional assay
[9] = biological target: HIV-1 JR-CSF Env H330A (HIV-1 isolate JR-CSF) (UniProt P20871); assay: cell-based or functional assay
[10] = biological target: HIV-1 JR-CSF Env W395A (HIV-1 (isolate JR-CSF)) (UniProt P20871); assay: cell-based or functional assay
[11] = biological target: HIV-1 JR-CSF Env I424A (HIV-1 (isolate JR-CSF)) (UniProt P20871); assay: cell-based or functional assay
[12] = biological target: HIV-1 JR-CSF Env F210A (HIV-1 JR-CSF) (UniProt P20871); assay: cell-based or functional assay
[13] = biological target: HIV-1 JR-CSF Env N392Q (HIV-1 (isolate JR-CSF)) (UniProt P20871); assay: cell-based or functional assay
[14] = biological target: HIV-1 JR-CSF Env R419A (HIV-1 (isolate JR-CSF)) (UniProt P20871); assay: cell-based or functional assay
[15] = biological target: HIV-1 JR-CSF Env I423A (HIV-1 (isolate JR-CSF)) (UniProt P20871); assay: cell-based or functional assay
[16] = biological target: HIV-1 JR-CSF Env I323A (HIV-1 isolate JR-CSF) (UniProt P20871); assay: cell-based or functional assay
[17] = biological target: HIV-1 JR-CSF Env N355A (HIV-1 isolate JR-CSF) (UniProt P20871); assay: cell-based or functional assay
[18] = biological target: HIV-1 JR-CSF Env I309A (HIV-1 JR-CSF) (UniProt P20871); assay: cell-based or functional assay
[19] = biological target: HIV-1 JR-CSF Env T297A (HIV-1 JR-CSF) (UniProt P20871); assay: cell-based or functional assay
[20] = biological target: HIV-1 JR-CSF Env S199A (HIV-1 JR-CSF) (UniProt P20871); assay: cell-based or functional assay
[21] = biological target: HIV-1 JR-CSF Env L416A (HIV-1 (isolate JR-CSF)) (UniProt P20871); assay: cell-based or functional assay
[22] = biological target: HIV-1 JR-CSF Env S387A (HIV-1 (isolate JR-CSF)) (UniProt P20871); assay: cell-based or functional assay
[23] = biological target: HIV-1 JR-CSF Env P313A (HIV-1 JR-CSF) (UniProt P20871); assay: cell-based or functional assay
[24] = biological target: HIV-1 JR-CSF Env I415A (HIV-1 (isolate JR-CSF)) (UniProt P20871); assay: cell-based or functional assay
[25] = biological target: HIV-1 JR-CSF Env T341A (HIV-1 isolate JR-CSF) (UniProt P20871); assay: cell-based or functional assay
[26] = biological target: HIV-1 JR-CSF Env R350A (HIV-1 isolate JR-CSF) (UniProt P20871); assay: cell-based or functional assay
[27] = biological target: HIV-1 JR-CSF Env N302A (HIV-1 JR-CSF) (UniProt P20871); assay: cell-based or functional assay
[28] = biological target: HIV-1 JR-CSF Env R304A (HIV-1 JR-CSF) (UniProt P20871); assay: cell-based or functional assay
[29] = biological target: Env of the clade B HIV-1 pseudoviruses of the cross-clade 162-pseudovirus panel (n = 31); assay: cell-based or functional assay
[30] = biological target: Env of the clade F HIV-1 pseudoviruses of the cross-clade 162-pseudovirus panel (n = 15); assay: cell-based or functional assay
[31] = biological target: Env of all HIV-1 pseudoviruses of the cross-clade 162-pseudovirus panel (n = 162); assay: cell-based or functional assay
[32] = biological target: HIV-1 NL43 envelope glycoprotein (Env) (HIV-1); assay: cell-based or functional assay
[33] = biological target: HIV-1 93IN905 envelope glycoprotein (Env) (HIV-1); assay: cell-based or functional assay
[34] = biological target: HIV-1 MGRM-C-027 envelope glycoprotein (Env) (HIV-1); assay: cell-based or functional assay
[35] = biological target: HIV-1 JR-CSF Env G324A (HIV-1 isolate JR-CSF) (UniProt P20871); assay: cell-based or functional assay
[36] = biological target: HIV-1 92BR020 envelope glycoprotein (Env) (HIV-1); assay: cell-based or functional assay

Binder | EC50 [1] | Fold IC50 increase relative to wild-type [3] | Fold IC50 increase relative to wild-type [4] | Median IC50 against viruses neutralized with an IC50 <50 µg/ml [5] | Fold IC50 increase relative to wild-type [7] | Fold IC50 increase relative to wild-type [8] | Fold IC50 increase relative to wild-type [9] | Fold IC50 increase relative to wild-type [10] | Fold IC50 increase relative to wild-type [11] | Fold IC50 increase relative to wild-type [12] | Fold IC50 increase relative to wild-type [13] | Fold IC50 increase relative to wild-type [14] | Fold IC50 increase relative to wild-type [15] | Fold IC50 increase relative to wild-type [16] | Fold IC50 increase relative to wild-type [17] | Fold IC50 increase relative to wild-type [18] | Fold IC50 increase relative to wild-type [19] | Fold IC50 increase relative to wild-type [20] | Fold IC50 increase relative to wild-type [21] | Fold IC50 increase relative to wild-type [22] | further results
B1 | 0.1 µg/mL | 1.1 fold | 1 fold | 0.04 µg/mL | 1.2 fold | 0.8 fold | 0.3 fold | 0.8 fold | 1.3 fold | 0.8 fold | 0.9 fold | 0.5 fold | 2.6 fold | 3 fold | 0.7 fold | 2.8 fold | 1.1 fold | 1 fold | 1.1 fold | 1.2 fold | EC50 [2]: 0.3 µg/mL; Polyclonal Transfectant Neutralization Index (well 5114 A19) [6]: 32.2; Primary Neutralization Index (B cell culture well 5114 A19) [6]: 17.1; Fold IC50 increase relative to wild-type [23]: 1 fold; Fold IC50 increase relative to wild-type [24]: 0.7 fold; Fold IC50 increase relative to wild-type [25]: 1.3 fold; Fold IC50 increase relative to wild-type [26]: 1 fold; Fold IC50 increase relative to wild-type [27]: 1.5 fold; Fold IC50 increase relative to wild-type [28]: 0.7 fold; Median IC50 against viruses neutralized with an IC50 <50 µg/ml [29]: 0.01 µg/mL; Median IC50 against viruses neutralized with an IC50 <50 µg/ml [30]: 0.52 µg/mL; Median IC50 against viruses neutralized with an IC50 <50 µg/ml [31]: 0.07 µg/mL
B2 | 0.4 µg/mL | 0.7 fold | 0.6 fold | 0.78 µg/mL | 2 fold | 153 fold | 0.5 fold | 0.5 fold | 4.8 fold | 1 fold | 0.4 fold | 1.7 fold | > 80 fold | 38 fold | 2.3 fold | 8.8 fold | 1.2 fold | 1.6 fold | 1 fold | 1.1 fold | Primary Neutralization Index (B cell culture well 5136 H1) [6]: 1.2; Fold IC50 increase relative to wild-type [23]: 0.52 fold; Fold IC50 increase relative to wild-type [24]: 0.6 fold; Fold IC50 increase relative to wild-type [25]: 1.3 fold; Fold IC50 increase relative to wild-type [26]: 1.3 fold; Fold IC50 increase relative to wild-type [27]: 1 fold; Fold IC50 increase relative to wild-type [28]: 1.5 fold; Median IC50 against viruses neutralized with an IC50 <50 µg/ml [29]: 0.07 µg/mL; Median IC50 against viruses neutralized with an IC50 <50 µg/ml [30]: 0.55 µg/mL; Median IC50 against viruses neutralized with an IC50 <50 µg/ml [31]: 0.52 µg/mL
B3 | 0.2 µg/mL | 1.5 fold | 0.6 fold | 0.15 µg/mL | 0.8 fold | 9.8 fold | 0.9 fold | 0.6 fold | 3.9 fold | 1.7 fold | 1.2 fold | 2.6 fold | > 1000 fold | 0.8 fold | 1.3 fold | > 77.9 fold | 0.9 fold | 0.9 fold | 1 fold | 0.7 fold | IC50 neutralization [32]: > 10 µg/mL; Polyclonal Transfectant Neutralization Index (well 5147 N6) [6]: 1.05; Primary Neutralization Index (B cell culture well 5147 N6) [6]: 3; IC50 neutralization [33]: 0.0182 µg/mL; IC50 neutralization [34]: 0.0052 µg/mL; Fold IC50 increase relative to wild-type [35]: > 50 fold; Fold IC50 increase relative to wild-type [23]: 0.3 fold; Fold IC50 increase relative to wild-type [24]: 0.6 fold; IC50 neutralization [36]: 1.12 µg/mL; Fold IC50 increase relative to wild-type [25]: 0.8 fold; Fold IC50 increase relative to wild-type [26]: 0.5 fold; Fold IC50 increase relative to wild-type [27]: 1.1 fold; Fold IC50 increase relative to wild-type [28]: 2.5 fold; Median IC50 against viruses neutralized with an IC50 <50 µg/ml [29]: 0.09 µg/mL; Median IC50 against viruses neutralized with an IC50 <50 µg/ml [30]: 0.07 µg/mL; Median IC50 against viruses neutralized with an IC50 <50 µg/ml [31]: 0.18 µg/mL
